In publication PMC7164962:

Molecular target: ADHA, alcohol dehydrogenase from Candida magnoliae DSMZ 70638, wild type (Candida magnoliae DSMZ 70638)
Test: crystal structure; purified enzyme, sitting drop, 20% w/v PEG 3350, 0.2 M sodium citrate; with or without 1 mM NADP+; quaternary structure seen in the crystal

stoichiometry N: 4
Substance: ADHA, alcohol dehydrogenase from Candida magnoliae DSMZ 70638, wild type (enzyme)
